Laboratory results published in patent US20150306254A1 (REGENTS OF THE UNIVERSITY OF COLORADO A BODY CORPORATE, published 2015).

Assays:
recombinant murine C3d = biological target: T1, recombinant murine C3d (murine, UniProt P01027 996-1303, limits assumed); assay: direct ELISA
T1 construct: domain: C3d; also called mouse C3d
Description: To confirm that the antibodies reacted with C3d and not with a contaminant in the immunogen, the antibodies were tested against the C3d using a sandwich ELISA in which the recombinant C3d was captured with a polyclonal anti-C3d capture antibody (Table 2). To test reactivity of the clones against murine C3d we performed indirect and sandwich ELISAs using recombinant murine C3d. We also performed direct ELISAs to test binding of the antibodies to recombinant human C3d from a second construct, purified human C3d, and to recombinant cynomologous C3d.
To assess reactivity of antibodies against C3d, ELISAs were performed using purified forms of C3 activation fragments from several different sources (see Reagents section above). Direct ELISAs were performed by affixing 30-50 ng of the C3 fragment to the ELISA plate overnight at 4° C. The plates were blocked with 1% bovine serum albumin in PBS for 2 hours at room temperature. Bound antibodies were then detected with HRP-conjugated anti-mouse IgG (MP Biomedicals, Solon, Ohio). Sandwich ELISAs were performed by incubating polyclonal anti-human C3d antibody (Dako USA, Carpinteria, Calif.) to the ELISA plates in order to capture the C3d. Binding of the antibodies to the captured C3d was then detected as above.

recombinant human C3d = biological target: T2, recombinant human C3d (human, UniProt P01024 996-1303, limits assumed); assay: SPR, recombinant human C3d fixed to a CM5 chip
T2 construct: domain: C3d; also called wild-type C3d; the C3d immunogen
Description: FIGS. 12A-12C. […] Surface plasmon resonance was performed using recombinant human C3d fixed to a CM5 chip.
The affinity of clones 3d8b, 3d9, and 3d29 for C3d were tested by surface plasmon resonance (FIG. 12).

[1] = biological target: T3, C3d, source and species not stated; assay: radiolabeled antibody; method and antigen not stated
T3 construct: domain: C3d; also called 3d antigen; target C3d antigen
T3 sequence (P01024 1002-1303): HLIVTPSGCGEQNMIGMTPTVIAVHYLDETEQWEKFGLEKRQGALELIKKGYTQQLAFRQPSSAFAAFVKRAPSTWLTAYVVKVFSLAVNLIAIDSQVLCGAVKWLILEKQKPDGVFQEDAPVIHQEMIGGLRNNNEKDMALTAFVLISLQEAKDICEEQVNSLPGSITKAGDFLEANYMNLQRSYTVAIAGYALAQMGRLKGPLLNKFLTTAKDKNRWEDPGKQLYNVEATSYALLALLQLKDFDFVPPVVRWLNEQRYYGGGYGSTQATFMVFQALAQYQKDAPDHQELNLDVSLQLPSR

T2 sequence (P01024 996-1303 limits assumed): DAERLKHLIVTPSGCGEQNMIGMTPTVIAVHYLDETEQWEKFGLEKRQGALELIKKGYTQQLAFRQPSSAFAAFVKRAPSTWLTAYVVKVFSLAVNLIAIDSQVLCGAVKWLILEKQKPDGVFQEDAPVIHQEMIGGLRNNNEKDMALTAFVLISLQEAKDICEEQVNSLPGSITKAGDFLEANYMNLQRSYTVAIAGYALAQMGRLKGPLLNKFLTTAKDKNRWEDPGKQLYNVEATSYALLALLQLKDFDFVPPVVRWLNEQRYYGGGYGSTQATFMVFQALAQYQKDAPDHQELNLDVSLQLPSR
T1 sequence (P01027 996-1303 limits assumed): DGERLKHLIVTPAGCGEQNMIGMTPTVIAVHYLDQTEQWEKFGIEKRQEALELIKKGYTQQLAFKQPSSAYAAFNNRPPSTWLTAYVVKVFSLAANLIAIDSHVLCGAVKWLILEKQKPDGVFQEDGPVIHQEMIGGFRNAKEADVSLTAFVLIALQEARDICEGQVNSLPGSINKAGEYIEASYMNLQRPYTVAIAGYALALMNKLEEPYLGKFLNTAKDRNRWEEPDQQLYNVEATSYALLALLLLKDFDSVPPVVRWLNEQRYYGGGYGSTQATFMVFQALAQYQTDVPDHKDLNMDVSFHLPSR

binding result (recombinant murine C3d): binds
Kd (recombinant human C3d): 1.06 nM
Kd [1]: 0.43 nM
B1: mouse monoclonal antibody 3d29 (antibody, mouse IgG2a, V domains shown)
VH: EVQLQQSGPVLVKPGASVKMSCKASGYTFTDYYMNWVKQSHGKSLEWIGVINPYNGGTSYNQKFKGKATLTVDKSSRTAYMELNSLTSEDSAVYYCSRGGPYWGQGTTLTVSS
VL: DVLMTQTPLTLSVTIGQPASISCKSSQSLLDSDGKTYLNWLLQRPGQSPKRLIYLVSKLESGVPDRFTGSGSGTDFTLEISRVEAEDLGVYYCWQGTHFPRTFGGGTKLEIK
notes: Mouse IgG2a/c (Group I clone); Also used FITC-labelled, biotinylated, radiolabeled and conjugated to SPIO nanoparticles; also called C3d29; 3d29a
